Here are results for one molecule from publication PMC3578163 (Chemical research in toxicology, 2013).

Holding throughout (experiment): fluorescence polarization
In series [1] the target is T1, DNA polymerase iota catalytic core (hpol ι26-446) (Homo sapiens, UniProt Q9UNA4 26-446).
T1 sequence: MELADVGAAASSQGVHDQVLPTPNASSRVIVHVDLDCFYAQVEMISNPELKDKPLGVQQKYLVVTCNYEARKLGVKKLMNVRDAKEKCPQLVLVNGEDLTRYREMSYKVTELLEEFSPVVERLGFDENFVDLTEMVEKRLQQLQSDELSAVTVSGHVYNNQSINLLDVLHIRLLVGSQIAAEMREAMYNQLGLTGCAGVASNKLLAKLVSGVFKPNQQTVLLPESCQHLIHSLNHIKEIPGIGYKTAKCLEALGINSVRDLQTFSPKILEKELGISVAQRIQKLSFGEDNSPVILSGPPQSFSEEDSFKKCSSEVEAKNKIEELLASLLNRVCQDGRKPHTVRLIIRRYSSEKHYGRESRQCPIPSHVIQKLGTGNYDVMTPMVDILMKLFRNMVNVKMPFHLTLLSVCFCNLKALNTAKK

Series [2] has as its target T2, DNA polymerase kappa catalytic core (hpol κ19-526) (Homo sapiens, UniProt Q9UBT6 19-526).
T2 sequence: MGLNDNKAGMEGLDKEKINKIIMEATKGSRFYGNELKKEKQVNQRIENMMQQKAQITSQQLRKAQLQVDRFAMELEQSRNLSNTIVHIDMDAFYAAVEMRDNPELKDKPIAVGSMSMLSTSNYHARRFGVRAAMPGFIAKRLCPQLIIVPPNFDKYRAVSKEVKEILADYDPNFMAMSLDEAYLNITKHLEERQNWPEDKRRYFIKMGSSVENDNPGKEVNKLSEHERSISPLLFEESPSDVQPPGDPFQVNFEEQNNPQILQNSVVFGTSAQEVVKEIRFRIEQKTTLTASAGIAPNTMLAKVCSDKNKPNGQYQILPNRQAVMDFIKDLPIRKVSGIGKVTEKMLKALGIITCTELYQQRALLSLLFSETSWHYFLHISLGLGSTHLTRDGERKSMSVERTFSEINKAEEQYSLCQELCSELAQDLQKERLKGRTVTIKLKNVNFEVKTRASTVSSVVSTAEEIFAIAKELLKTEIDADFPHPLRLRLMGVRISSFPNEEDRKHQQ

The target in series [3] is T1, DNA polymerase iota catalytic core …. The source holds these as a separate data set.
Series [4] has the same target. This is another data set of the same source.
Series [5] shares this target. This is another data set of the same source.
Series [6] has as its target T2, DNA polymerase kappa catalytic core …. The source holds these as a separate data set.
Series [7] has as its target T1, DNA polymerase iota catalytic core …. This is another data set of the same source.
Series [8] deals with T2, DNA polymerase kappa catalytic core …. This is another data set of the same source.

Where two headings read alike, the source gives them in different places.

B1: FAM-13/18mer primer-template DNA (dsDNA)
DNA 1: TTTGGGGGAAGGATTC
DNA 2: TCACGGAATCCTTCCCCC
In the case of B1, the dissociation constant Kd in series [1] was determined as 6.3 ± 0.9 nM; in series [2] it was 19 ± 5.6 nM; in series [3], 9.1 ± 1.6 nM; in series [4] it was 8.8 ± 1.3 nM; in series [5] it was 5.5 ± 0.7 nM; in series [6] it was 13.7 ± 5.1 nM. Besides, the Kd in series [7] was 5.3 ± 0.7 nM; in series [8] it was 11.1 ± 5.1 nM.
